Positions count from the first letter of the chain named. In names and notes the source's numbering stands. Blank lines part the entries; values can stand above or below the binder they belong to.
Experiments:
[1] = biological target: T1, AMHRII receptor expressed on cells (cov434-AMHRII, Asc 1, META 2815) (human, UniProt Q16671 18-573); experiment: saturation binding of 125I-labelled antibody to cov434-AMHRII cells, Scatchard analysis
T1 construct: whole, on cells; The cell line is named in the assay or readout field of each row; also called AMHRII antigen
T1 sequence (looked up): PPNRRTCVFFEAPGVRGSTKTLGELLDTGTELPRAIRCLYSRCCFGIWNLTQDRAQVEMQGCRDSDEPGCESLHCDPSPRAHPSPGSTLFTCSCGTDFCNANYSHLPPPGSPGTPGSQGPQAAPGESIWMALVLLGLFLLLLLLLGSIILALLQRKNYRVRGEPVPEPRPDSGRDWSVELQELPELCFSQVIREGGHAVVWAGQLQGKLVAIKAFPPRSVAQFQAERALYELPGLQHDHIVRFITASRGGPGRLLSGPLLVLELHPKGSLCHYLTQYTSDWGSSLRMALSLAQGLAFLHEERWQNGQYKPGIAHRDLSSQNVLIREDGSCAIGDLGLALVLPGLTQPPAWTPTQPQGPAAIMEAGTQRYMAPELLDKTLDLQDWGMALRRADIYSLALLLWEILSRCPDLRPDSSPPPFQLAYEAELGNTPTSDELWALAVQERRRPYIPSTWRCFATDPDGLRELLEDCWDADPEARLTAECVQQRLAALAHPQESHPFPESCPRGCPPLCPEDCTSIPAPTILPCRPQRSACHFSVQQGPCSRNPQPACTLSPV
Protocol: Briefly, KD was determined by the saturation method, by adding increasing doses of radiolabelled antibody to a constant number of cov434-AMHRII cells. […] For each antibody, fourfold dilutions were carried out in PBS/BSA 0.5% from the solutions of labelled and unlabelled antibody (84.4 μg/ml). The nonspecific fixation was evaluated by incubating the cells in the presence of a 100 times molar excess of unlabelled antibody.
After incubation, the samples were frozen in liquid nitrogen and then analysed in a gamma counter. The specific fixation was determined by subtracting the fixation obtained in the presence of an excess of unlabelled antibody.

[2] = biological target: T2, Epitope peptide GGGGNLTQDRAQVEMQGSR; experiment: method not stated; Example 2, heading names cov434-AMHR-II cells and the epitope peptide
T2 peptide: GGGGNLTQDRAQVEMQGSR

[3] = biological target: T1, AMHRII receptor expressed on cells …; experiment: cell-based or functional assay
[4] = biological target: T1, AMHRII receptor expressed on cells …; experiment: cell-based or functional assay; remark: listed apart in the source
[5] = biological target: T1, AMHRII receptor expressed on cells …; experiment: cell-based or functional assay; remark: listed apart in the source
[6] = biological target: T3, AMHR-II/Fc fusion protein (human, UniProt Q16671 18-149, limits assumed); experiment: SPR, BIAcore X100; ratio against the chimeric 12G4
T3 construct: also called AMHR-II recombinant receptor expressed in the form of fusion protein with a region Fc; recombinant target; not shown: Fc region
Protocol: (§1) The affinity of the antibodies for their antigen, AMHR-II, is determined by the SPR (Surface Plasmon Resonance) technique on BIACore X100 (BIACore, GE Healthcare). The AMHR-II recombinant receptor, expressed in the form of fusion protein with a region Fc, is immobilized by covalent coupling between its amine functions and the carboxyl groups of dextran activated in succinimide esters, present on the surface of the type CM5 sensor chip. The COOH groups of the sensor chip are activated for 7 minutes with EDC/NHS mixture (0.1 M of N-hydroxysuccinimide and 0.1 M of 3-(N,N-dimethylamino)propyl-N-ethylcarbodiimide) at a flow of 10 μl/min then the AMHR-II/Fc fusion protein, diluted to 5 μg/ml in 10 mM sodium acetate buffer, pH 4.0, is injected at […] on track 2 of the sensor chip so as to reach 300 RU. The ester groups that have not reacted with the amines of the fusion protein are deactivated by injection of a solution of ethanolamine-HCl 1M, pH 8.5 for 7 min at a flow of 10 μl:min. Track 1, serving as negative control, was activated and deactivated like track 2.
(§2) All the measurements are carried out at 25° C. The antibodies to be analysed are diluted in HBS-EP running buffer (BIACore, GE Healthcare) at concentrations from 6.25 to 3333 nM and injected on the sensor chip for 2 min at a flow of 30 μl/min. The dissociation step is monitored for 10 min and then the surface is regenerated by injection of 10 mM glycine buffer, pH 1.5 for 30 s at 10 μl/min.
(§3) The sensorgrams obtained are analysed using the 1:2 kinetic model of the BIAevaluation 3.1 software.

[7] = biological target: T3, AMHR-II/Fc fusion protein; experiment: SPR, BIAcore X100; AMHR-II/Fc immobilised on CM5 chip, antibody injected; 25 C
Protocol: as §1, §2, §3

B1: murine 12G4 monoclonal antibody (antibody, V domains shown)
VH: QVQLQQSGPELVKPGASVRMSCKASGYTFTSYHIHWVKQRPGQGLEWIGWIYPGDDSTKYNEKFKGKTTLTADKSSSTAYMLLSSLTSEDSAIYFCTRGDRFAYWGQGTLVTVSA
VL: QIVLTQSPAIMSASLGEGITLTCSASSSVRYIHWYQQKSGTSPKLLIYSTSNLASGVPSRFSGSGSGTFHSLTISSVEAEDAADYYCLQWSSYPWTFGGGTKLEIK
notes: also called mLFB112; original murine 12G4 antibody
Kd [1]: 15.4 nM
Kd [2]: ~100 nM
koff [2]: 0.00147 s⁻¹

B2: mutated humanized 12G4 antibody 3C-23K produced in YB2/0 (antibody, human IgG1, kappa, V domains shown)
VH: QVRLVQSGAEVKKPGASVKVSCKASGYTFTSYHIHWVRQAPGQRLEWMGWIYPGDDSTKYSQKFQGRVTITRDTSASTAYMELSSLRSEDTAVYYCTRGDRFAYWGQGTLVTVSS
VL: DIQMTQSPSTLSASVGDRVTITCRASSSVRYIAWYQQKPGKAPKLLTYPTSSLKSGVPSRFSGSGSGTEFTLTISSLQPDDFATYYCLQWSSYPWTFGGGTKVEIKR
notes: Chains without leader; also called 3C_23K YB2/0; 3C-23K-YB2/0
50% relative, ADCC on the COV434-AMHRII line (chimeric antibody = 1) [3]: 0.84
EC50, ADCC on Asc 1 cells [3]: ~2.24 ng/mL
EC50, ADCC on META 2815 cells [3]: 30.5 ng/mL
fold cytotoxic activity on Asc 1 cells against 3C-23K-CHO [3]: ~40 fold
fold cytotoxic activity on META 2815 cells against 3C-23K-CHO [3]: ~146 fold
% of lysis of ASC1 cells (ADCC with NK cells, LDH release) at 0.001 ng/ml antibody [4]: 0%
% of lysis of ASC1 cells (ADCC with NK cells, LDH release) at 0.005 ng/ml antibody [4]: 8%
% of lysis of ASC1 cells (ADCC with NK cells, LDH release) at 0.05 ng/ml antibody [4]: 10%
% of lysis of ASC1 cells (ADCC with NK cells, LDH release) at 0.5 ng/ml antibody [4]: 26%
% of lysis of ASC1 cells (ADCC with NK cells, LDH release) at 5 ng/ml antibody [4]: 51%
% of lysis of ASC1 cells (ADCC with NK cells, LDH release) at 50 ng/ml antibody [4]: 67%
% of lysis of ASC1 cells (ADCC with NK cells, LDH release) at 500 ng/ml antibody [4]: 79%
% of lysis of ASC1 cells (ADCC with NK cells, LDH release) at 5000 ng/ml antibody [4]: 75%
EC50 (ng/ml), ADCC on ASC1 cells [5]: 1.7 ng/mL
Emax (% of lysis), ADCC on ASC1 cells [5]: 79 % of lysis
KD chimeric/KD mutated [6]: 10
Kd [7]: 21 nM
koff [7]: 0.00086 s⁻¹
kon [7]: 40000 M⁻¹ s⁻¹
Kd [1]: 5.3 nM
fold affinity against the original murine 12G4 antibody [1]: ~3 fold

B4: unmutated humanized 12G4 monoclonal antibody (antibody, human IgG1, kappa, V domains shown)
VH: B2 VH with R3Q
VL: B2 VL with T47I, P49S, K54E
notes: Variable regions without leader joined to the constant regions; also called huLFB112; 632 07 107 Anti AMHRII hum 1st
% of lysis of ASC1 cells (ADCC with NK cells, LDH release) at 0.001 ng/ml antibody [4]: 0%
% of lysis of ASC1 cells (ADCC with NK cells, LDH release) at 0.005 ng/ml antibody [4]: 18%
% of lysis of ASC1 cells (ADCC with NK cells, LDH release) at 0.05 ng/ml antibody [4]: 2%
% of lysis of ASC1 cells (ADCC with NK cells, LDH release) at 0.5 ng/ml antibody [4]: 0%
% of lysis of ASC1 cells (ADCC with NK cells, LDH release) at 5 ng/ml antibody [4]: 7%
% of lysis of ASC1 cells (ADCC with NK cells, LDH release) at 50 ng/ml antibody [4]: 24%
% of lysis of ASC1 cells (ADCC with NK cells, LDH release) at 500 ng/ml antibody [4]: 50%
% of lysis of ASC1 cells (ADCC with NK cells, LDH release) at 5000 ng/ml antibody [4]: 50%
EC50 (ng/ml), ADCC on ASC1 cells [5]: 52.4 ng/mL
Emax (% of lysis), ADCC on ASC1 cells [5]: 52.4 % of lysis
Kd [2]: 5260 nM
koff [2]: 0.00962 s⁻¹
kon [2]: 1830 M⁻¹ s⁻¹

B5: mutated humanized 12G4 antibody 3C-23 produced in YB2/0 (antibody, human IgG1, kappa, V domains shown)
VH: B2 VH
VL: B2 VL with K54E
notes: Chains without leader; Mutations VH-Q3R, VL-I177T/S179P; also called 3C_23 YB2/0; R901 3C23
50% relative, ADCC on the COV434-AMHRII line (chimeric antibody = 1) [3]: 6.41
% of lysis of ASC1 cells (ADCC with NK cells, LDH release) at 0.001 ng/ml antibody [4]: 0%
% of lysis of ASC1 cells (ADCC with NK cells, LDH release) at 0.005 ng/ml antibody [4]: 8%
% of lysis of ASC1 cells (ADCC with NK cells, LDH release) at 0.05 ng/ml antibody [4]: 9%
% of lysis of ASC1 cells (ADCC with NK cells, LDH release) at 0.5 ng/ml antibody [4]: 13%
% of lysis of ASC1 cells (ADCC with NK cells, LDH release) at 5 ng/ml antibody [4]: 35%
% of lysis of ASC1 cells (ADCC with NK cells, LDH release) at 50 ng/ml antibody [4]: 46%
% of lysis of ASC1 cells (ADCC with NK cells, LDH release) at 500 ng/ml antibody [4]: 52%
% of lysis of ASC1 cells (ADCC with NK cells, LDH release) at 5000 ng/ml antibody [4]: 63%
EC50 (ng/ml), ADCC on ASC1 cells [5]: 6.3 ng/mL
Emax (% of lysis), ADCC on ASC1 cells [5]: 65.5 % of lysis
KD chimeric/KD mutated [6]: 2.3
Kd [7]: 92 nM
koff [7]: 0.0033 s⁻¹
kon [7]: 36000 M⁻¹ s⁻¹
Kd [1]: 7.33 nM

Further lines, results first:

EC50, ADCC on META 2815 cells [3]: 467 ng/mL
KD chimeric/KD mutated [6]: 8.5
Kd [7]: 25 nM
koff [7]: 0.001 s⁻¹
kon [7]: 41000 M⁻¹ s⁻¹
B3: mutated humanized 12G4 antibody 3C-23K produced in CHO (antibody, human IgG1, kappa, V domains shown)
VH: B2 VH
VL: B2 VL
notes: also called 3C_23K CHO; 3C-23K-CHO

KD chimeric/KD mutated [6]: 2.6
Kd [7]: 81 nM
koff [7]: 0.0012 s⁻¹
kon [7]: 15000 M⁻¹ s⁻¹
B6: mutated humanized 12G4 antibody 6B-78 produced in CHO (antibody, human IgG1, kappa, V domains shown)
VH: B2 VH with R3Q
VL: B2 VL with T47I, P49S
notes: also called 6B_78 CHO

50% relative, ADCC on the COV434-AMHRII line (chimeric antibody = 1) [3]: 36.9
% of lysis of ASC1 cells (ADCC with NK cells, LDH release) at 0.001 ng/ml antibody [4]: 0%
% of lysis of ASC1 cells (ADCC with NK cells, LDH release) at 0.005 ng/ml antibody [4]: 14%
% of lysis of ASC1 cells (ADCC with NK cells, LDH release) at 0.05 ng/ml antibody [4]: 5%
% of lysis of ASC1 cells (ADCC with NK cells, LDH release) at 0.5 ng/ml antibody [4]: 3%
% of lysis of ASC1 cells (ADCC with NK cells, LDH release) at 5 ng/ml antibody [4]: 28%
% of lysis of ASC1 cells (ADCC with NK cells, LDH release) at 50 ng/ml antibody [4]: 42%
% of lysis of ASC1 cells (ADCC with NK cells, LDH release) at 500 ng/ml antibody [4]: 48%
% of lysis of ASC1 cells (ADCC with NK cells, LDH release) at 5000 ng/ml antibody [4]: 53%
EC50 (ng/ml), ADCC on ASC1 cells [5]: 5.38 ng/mL
Emax (% of lysis), ADCC on ASC1 cells [5]: 51.9 % of lysis
KD chimeric/KD mutated [6]: 2.6
Kd [7]: 82 nM
koff [7]: 0.0013 s⁻¹
kon [7]: 16000 M⁻¹ s⁻¹
Kd [1]: 6.68 nM
B7: mutated humanized 12G4 antibody 6B-78 produced in YB2/0 (antibody, human IgG1, kappa, V domains shown)
VH: B2 VH with R3Q
VL: B2 VL with T47I, P49S
notes: Chains without leader; Mutation VL-E184K; also called 6B_78 YB2/0; R901 6B78

KD chimeric/KD mutated [6]: 2.5
Kd [7]: 86 nM
koff [7]: 0.0043 s⁻¹
kon [7]: 50000 M⁻¹ s⁻¹
B8: mutated humanized 12G4 antibody 3C-23 produced in CHO (antibody, human IgG1, kappa, V domains shown)
VH: B2 VH
VL: B2 VL with K54E
notes: also called 3C_23 CHO

Source: patent US20130136743A1 (LABORATOIRE FRANCAIS DU FRACTIONNEMENT ET DES …, published 2013)
